± gives the half width of the 95% confidence interval.
Assay: folding stability dG unfold (combined trypsin and chymotrypsin); higher = more stable
In short: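 Mini-proteins designed to be under 80 residues and free of cysteine were carried in a PA-tagged cDNA display construct and digested with trypsin and with chymotrypsin. Each protease was applied at 11 threefold-diluted concentrations, alongside a no-protease condition, before sequencing. K50 came from Bayesian fitting of the sequencing counts, and unfolding free energy was obtained by comparing it with a sequence-predicted unfolded-state K50 and a shared folded-state K50, for each protease separately or for both together. Designs were retained only if their AlphaFold2 dimer inter-PAE exceeded 15.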

Point of comparison: “SAGGAPVTTFSLTLENPETGLNWTSTSATYDPATGTLTLNLKRPQSGESLTLTTPVTVVSPEEPELASAGGS [r8_193_JUSTAS]”, “folding stability dG unfold” value 0.813 ± 0.11 kcal/mol. Against it:
- SAGGMERKTLTVNVPASVPASELLSLLEGYGDVLLVLGNGEVLHIKRDDAPGLEGLPLSDDDVLELYYSAGG [r13_399_TrMRF] — within error, 0.802 ± 0.075 kcal/mol
- SAGGSAGGSAGKVVLYLPGDGTAWVLKVGDGEAVLEAEPEKVEELLEKIPGTEAVPVPGLSAGGSAGGSAGG [r11_57_TrMRF] — lower, 0.425 ± 0.12 kcal/mol
- SAMKYTITVKGDIESVRNFLLDKLDFDIEVSSTPDGTTVITITMDEEKVSELKELLKAHPNFPTTVNKESAG [r14_521_JUSTAS] — higher, 3.83 ± 0.11 kcal/mol
- SAGVVVRPGEPVPFYVVRVETELRTRPRPDGSEVTTVETRVEVRPYTVTVGPVPVVEVPPDATDPADAASAG [r5_770_TrMRF] — higher, 3.21 ± 0.16 kcal/mol
- KIEIVEIKKENGKITIKVKNPIPNAKLIIYLFNPKGEIVSAKTHPGPEVELEIEVPENESFSVLVKLFPPKS [r1_382_TrMRF] — higher, 3.99 ± 0.14 kcal/mol
- SAGGSAGGSAGGKPKLTLTLTLKRTVKNKNGKTTEKTLTLTLTFDSKEEAENALKELGFSAGGSAGGSAGGS [r10_1062_TrROS_Hall] — higher, 2.67 ± 0.099 kcal/mol
- SAGGMVEITATVGSPDPSLTDEEIAERILKELGLDPEIVEVTFLERRLVPDAAGRVRVVVEMKFLVPEKSAG [r5_528_JUSTAS] — higher, 4.73 ± 0.19 kcal/mol
- SAGGSMVVVVKLKDGKKIELSVEELKKLAEELGLEPEEEDKEERLERIAKALAEKLGLEVEKVEVLSAGGSA [r2_83_TrROS_Hall] — higher, 3.33 ± 0.35 kcal/mol
- SAGGSAAIPLEFELPNGERVTVYYDPETGLFTVEVEVRFGNEKGEPPEVRFRFEVDSLVDLLDFLASAGGSA [r15_31_TrMRF] — higher, 3.49 ± 0.093 kcal/mol
- SAGGSAGGSAGKVTLTIPFTNEDGTKYIAEFTFDELEVEEDVEIKIVSLGENFDLVLKPESAGGSAGGSAGG [r11_733_TrMRF] — higher, 1.63 ± 0.1 kcal/mol
- SAEKTLTIPITLENGATLTITVYEDRIEATLEVDGLTGTGYTLPDGTVVLNLRAPGNKPIASPVFTLDLSAG [r14_213_TrMRF] — higher, 2.31 ± 0.12 kcal/mol
- SAGGSAGGSMKITKSPSGYYTVTINLPNGTTVEIKVSTSDPNATDEQIIEIAKPKAEEILKKSSAGGSAGGS [r12_642_JUSTAS] — higher, 2.53 ± 0.14 kcal/mol
- SAGGSAMLVVADDPEVVRELVEPLFPDGEPVLVVGATEEEAAKLVEELKKKGLPFKVVVVRRPDRPSAGGSA [r15_567_TrMRF] — within error, 0.657 ± 0.14 kcal/mol
- SAGPWITIPFKVKSLEEARNIIREIAQTFGLPMKVEDIQVTEDQLEKNREPGDPIRITVRYPNGREIEISAG [r5_503_TrROS] — higher, 1.64 ± 0.11 kcal/mol
- SAGGSAGGSAGMLPLEELLKKNPKPIKVLVKVGDTEYLVEVTPGEKKYTIKVKPLKKSKPSAGGSAGGSAGG [r11_549_TrMRF] — higher, 1.41 ± 0.076 kcal/mol
- SAGGSAKLTIELVISDMSPEDAEIAAENIRIELIKKGIPEEEIENVDIKVIVAPVYLDEDNNLILGSAGGSA [r15_684_TrMRF] — within error, 0.694 ± 0.058 kcal/mol
- SMTVEVELTVTVEVVDPKTGKKKTVTVKVTVKVRVTEVKTKDGKTEVKVELSEEALEEARRLAEELAKKKSA [r9_698_TrROS_Hall] — higher, 2.89 ± 0.46 kcal/mol
- SAGGSATIEEIANMPAEEIAQEHGMEVKDVDIERVPNGTITVEVEYEPPDGKKHKHTFQIKIDEGQSAGGSA [r15_805_TrROS] — lower, 0.284 ± 0.2 kcal/mol
- SGSPDELEVVESEETVNIPPEELEAKYGIKVPENSTVVIKTKTLKPPSGNDIVEPEIKIYDPVTNEWIELSA [r9_349_JUSTAS] — lower, -0.47 ± 0.25 kcal/mol
- SAGGTSPVTIPVTFDDLPPDAVDEAKARAEELAEELRAQGHEVLSVTIEIEPGRVTVTLTVTFPGGAPLSAG [r5_515_JUSTAS] — higher, 1.3 ± 0.12 kcal/mol
- SAGGGDWYKVTVKVDGNPEVAEALVEKLLEEVGEEVVFEPRPGEQTVTFYVPKELLPLLEELGIEVEPSAGG [r13_156_TrMRF] — higher, 2.56 ± 0.13 kcal/mol
- TPLTTSTTTVPPSEIATPVTFNAPLSPDTSVTITTYDSATGTTSPVFSTTSASVTLTDLPNVSTATVVVVSS [r1_224_JUSTAS] — lower, 0.459 ± 0.068 kcal/mol
- SAGGSAGGSAMTPVTIKVTLTNPATGSTTTKTIYVPEPNPSVEEIKKKLPSDWTVTSITLSSAGGSAGGSAG [r3_80_JUSTAS] — within error, 1.07 ± 0.16 kcal/mol
- SAKKTIVVPVEKLKELLDALKEAGYEVKVEYNKENPVVTVTITVKDKNGKELKIELVVDKKTGLVTIKLSAG [r14_169_TrROS_Hall] — higher, 2.26 ± 0.13 kcal/mol
- SAGGSMGKTPDGGEVEFFEKPEENLIFAVVKHPDGSYYVAVFKKDEDKIELIDVKEVPEGEIEELASAGGSA [r2_336_TrMRF] — higher, 1.89 ± 0.13 kcal/mol
- SAGGKYVMFPFDSPEDLKDLLPPGYPVEIHMMPPKGKHRTRTFTPDEIKLELPPGENFYFMIKVKPPDSAGG [r13_461_TrROS] — higher, 1.74 ± 0.2 kcal/mol
- SAGGSAGGSAGGKKIRIVVPKENLEKIEELAKKLGPDVKIVKVEYFKETDYVVVEVEVKSAGGSAGGSAGGS [r10_23_TrROS_Hall] — higher, 2.11 ± 0.086 kcal/mol
- SALKISVTVDPDGPTATATLELYNPETGKPTTLTATIHRLPDGSYLVTIHFPSNNKTITFTVPEDGVITLSA [r9_1220_TrMRF] — higher, 3.03 ± 0.12 kcal/mol
- SAGGLEELAKEIADDLQKRNPDMNIEVQVEVHEYKIPPGQKMRHPDGEEKEVPPGQKVYMFTIRVTPSAGGS [r16_357_TrROS] — higher, 1.17 ± 0.21 kcal/mol
- SADVVVIHARSPEELRAALEEARKEGKTVRIVVSREELDELKALLPEDVKIEVLKNENGEELVVIEVKVSAG [r14_127_TrROS_Hall] — higher, 4.15 ± 0.43 kcal/mol
- SSATVTFTVELPDDSVIVSVRIDAEEYDPGPPWVRVTIEVEIYDKNGELLATLRFEFLLPREVLEELRKSSA [r9_234_TrMRF] — higher, 5.77 ± 0.66 kcal/mol

From the supplement of paper PMC12764529
